# T1: N-SA-CD24 (CD24 stripped of N-glycan and sialic acid modifications) (not fully specified; N-glycans and sialic acid removed; O-glycans present; biotinylated in the Jurkat bispecific assays)
# T1 construct: also called SA-N-CD24; SA-N-
# T1 chain: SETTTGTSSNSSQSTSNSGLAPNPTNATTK
# Key:
# CD24-GST fusion protein = target: T2, CD24-GST fusion protein; assay: ELISA on coated CD24-GST with expression media, relative to chimeric PP6373 (FIG. 28)
# T2 construct: also called biotinylated CD24-GST; not shown: GST (glutathione S-transferase) fusion partner
# Procedure: To select the best working combination of HuVH and HuVL for CD24 binding, different combinations were co-transfected into 293 cells for 72 hrs. Two ELISAs are then performed with expression media. ELISA 1: a 96 well plate was coated with purified goat-anti-human polyclonal IgG (GAH) and, after blocking, expression media or purified control IgGs were added, and goat-anti-human IgG-HRP was used as detection antibody. ELISA 2: a 96 well plate was coated with CD24-GST protein and, after blocking, expression media or purified control IgGs were added, and goat-anti-human IgG-HRP was used as detection antibody.
# [1] = target: T1, N-SA-CD24 (CD24 stripped of N-glycan …); assay: ELISA titration on coated Fc removed CD24 treated with NanA + N-glycanase (FIG. 8)
binding result (CD24-GST fusion protein),fold increase of binding against the parental antibody [1],Binder
binds,,"H1L3 (humanized PP6373) (antibody, V domains shown, Tested as expression medium of co-transfected 293 cells) VH: EVQFVESGGGLVQPGGSLKLSCAASGVTFSEAWMDWVRQASGKGLEWVGEIRDKPNSYVTYYAESVKGRFTISRDDSKNTAYLQMNSLKTEDTAVYYCTGAMDYWGQGTLVTVSS VL: DIVMTQTPLSLSVTIGQPASISCKSSQSLLYSNGKTYLNWLLQKPGQSPKRLIYQVSKLDPGIPDRFSGSGSETDFTLKISRVEAEDVGIYYCMQGSSLPWTFGGGTKVEIKR"
,~100 fold,"PP6373 (affinity matured chimeric anti-CD24 antibody) (antibody, human IgG1, kappa, V domains shown, also called P3050.ComF1.2H1; H4069 + L4071) VH: EVKFEESGGGLVQPGGSIKLSCAASGVTFSEAWMDWVRQSPEKGLEWVAEIRDKPNSYVTYYAESVKGRFTISRDDSKSRVYLQMNNLRTEDTGIYYCTGAMDYWGQGTSVTVSS VL: DIVMTQTPLSLSVTIGQPASISCKSSQSLLYSNGKTYLNWLQQRPGQSPKRLIYQVSKLDPGIPDRFSGSGSETDFTLKISRVEAEDLGIYYCMQGSSLPWTFGGGTKLEIKR"
binds,,"H4L3 (humanized PP6373) (antibody, V domains shown, Tested as expression medium of co-transfected 293 cells) VH: EVQFVESGGGLVQPGGSLKLSCAASGVTFSEAWMDWVRQASGKGLEWVAEIRDKPNSYVTYYAESVKGRFTISRDDSKSTVYLQMNSLKTEDTAIYYCTGAMDYWGQGTLVTVSS VL: DIVMTQTPLSLSVTIGQPASISCKSSQSLLYSNGKTYLNWLLQKPGQSPKRLIYQVSKLDPGIPDRFSGSGSETDFTLKISRVEAEDVGIYYCMQGSSLPWTFGGGTKVEIKR"

# From patent US20210214458A1 (ONCOC4, published 2021)
